The values below come from article PMC10511788 (2023).

In the test the target is M1-linked di-ubiquitin (UniProt P0CG48 1-76; P0CG48 1-76). Description: ITC. On the technique in general: ITC needs no label: the signal is the heat of the interaction.

B1: mouse HOIL-1L NZF domain (residues Pro192-Gln250) T207E (domain or fragment)
chain: GPLGSPEPVGWQCPGCTFINKPERPGCEMCCRARPETYQIPASYQPDEEERARLAGEEEALRQYQQ
The molecule B1 had a Kd of 15.9 µM.

As usually defined, the Kd is the equilibrium constant for the complex coming apart. Read a low Kd as higher affinity.
